Test: RP-HPLC insulin apparent solubility / percent recovery (content)
Settings: 7 days at 2-8° C.
Description: Apparent solubility was measured as the percent insulin recovery as compared to the initial formulations/conditions.
Samples were prepared by withdrawing 100 μL from each vial at every time point and centrifuging prior to loading. Samples were stored in an autosampler at 4° C. prior to use, and were considered stable for 3 days after preparation. All samples were tested in duplicate.
For insulin, 20 μL was injected for each HPLC run.
To determine the apparent solubility, the peak area of insulin/insulin analog main peak and desamido peak were integrated and combined together to calculate the percentage relative to the standards. […] The data were processed using Design-Expert® 7.0 (StatEase) and the “historical data” feature. Insulin percent purity was expressed as the percent of main insulin versus all insulin species.

Substance: Regular Insulin: mature human insulin, SEQ ID NOS: 103 and 104
- Solubility of regular Insulin (0.2% methylparaben + […] m-cresol, pH 6.6, NaCl 50 mM): 15.3%
- Solubility of regular Insulin (0.2% methylparaben + […] m-cresol, pH 6.6, NaCl 80 mM): 9.0%
- Solubility of regular Insulin (0.2% methylparaben + […] m-cresol, pH 6.6, NaCl 140 mM): 5.8%
- Solubility of regular Insulin (0.2% methylparaben + […] m-cresol, pH 6.8, NaCl 50 mM): 34.1%
- Solubility of regular Insulin (0.2% methylparaben + […] m-cresol, pH 6.8, NaCl 110 mM): 11.4%
- Solubility of regular Insulin (0.2% methylparaben + […] m-cresol, pH 7.0, NaCl 50 mM): 86.9%
- Solubility of regular Insulin (0.2% methylparaben + […] m-cresol, pH 7.0, NaCl 80 mM): 46.6%
- Solubility of regular Insulin (0.2% methylparaben + […] m-cresol, pH 7.0, NaCl 140 mM): 15.9%
- Solubility of regular Insulin (0.2% methylparaben + […] m-cresol, pH 7.2, NaCl 80 mM): 90.6%
- Solubility of regular Insulin (0.2% methylparaben + […] m-cresol, pH 7.2, NaCl 110 mM): 47.1%
- Solubility of regular Insulin (0.2% methylparaben + […] m-cresol, pH 7.2, NaCl 140 mM): 32.9%
- Solubility of regular Insulin (0.2% methylparaben + […] m-cresol, pH 7.4, NaCl 50 mM): 98.1%
- Solubility of regular Insulin (0.2% methylparaben + […] m-cresol, pH 7.4, NaCl 80 mM): 97.7%
- Solubility of regular Insulin (0.2% methylparaben + […] m-cresol, pH 7.4, NaCl 110 mM): 94.6%
- Solubility of regular Insulin (0.2% methylparaben + […] m-cresol, pH 7.4, NaCl 140 mM): 59.1%
- Solubility of regular Insulin (0.2% methylparaben + […] m-cresol, pH 7.6, NaCl 50 mM): 98.1%
- Solubility of regular Insulin (0.2% methylparaben + […] m-cresol, pH 7.6, NaCl 80 mM): 97.9%
- Solubility of regular Insulin (0.2% methylparaben + […] m-cresol, pH 7.6, NaCl 140 mM): 95.4%
- Solubility of regular Insulin (0.2% phenol + […] m-cresol, pH 6.6, NaCl 50 mM): 26.8%
- Solubility of regular Insulin (0.2% phenol + […] m-cresol, pH 6.6, NaCl 80 mM): 8.7%
- Solubility of regular Insulin (0.2% phenol + […] m-cresol, pH 6.6, NaCl 110 mM): 6.5%
- Solubility of regular Insulin (0.2% phenol + […] m-cresol, pH 6.6, NaCl 140 mM): 5.8%
- Solubility of regular Insulin (0.2% phenol + […] m-cresol, pH 6.8, NaCl 50 mM): 38.4%
- Solubility of regular Insulin (0.2% phenol + […] m-cresol, pH 6.8, NaCl 80 mM): 17.1%
- Solubility of regular Insulin (0.2% phenol + […] m-cresol, pH 6.8, NaCl 140 mM): 6.5%
- Solubility of regular Insulin (0.2% phenol + […] m-cresol, pH 7.0, NaCl 50 mM): 100.3%
- Solubility of regular Insulin (0.2% phenol + […] m-cresol, pH 7.0, NaCl 80 mM): 35.7%
- Solubility of regular Insulin (0.2% phenol + […] m-cresol, pH 7.0, NaCl 110 mM): 17.7%
- Solubility of regular Insulin (0.2% phenol + […] m-cresol, pH 7.0, NaCl 140 mM): 11.6%
- Solubility of regular Insulin (0.2% phenol + […] m-cresol, pH 7.2, NaCl 80 mM): 92.2%
- Solubility of regular Insulin (0.2% phenol + […] m-cresol, pH 7.2, NaCl 110 mM): 37.4%
- Solubility of regular Insulin (0.2% phenol + […] m-cresol, pH 7.2, NaCl 140 mM): 18.9%
- Solubility of regular Insulin (0.2% phenol + […] m-cresol, pH 7.4, NaCl 80 mM): 99.2%
- Solubility of regular Insulin (0.2% phenol + […] m-cresol, pH 7.4, NaCl 110 mM): 87.8%
- Solubility of regular Insulin (0.2% phenol + […] m-cresol, pH 7.4, NaCl 140 mM): 40.6%
- Solubility of regular Insulin (0.2% phenol + […] m-cresol, pH 7.6, NaCl 80 mM): 99.2%
- Solubility of regular Insulin (0.2% phenol + […] m-cresol, pH 7.6, NaCl 110 mM): 98.5%
- Solubility of regular Insulin (0.2% phenol + […] m-cresol, pH 7.6, NaCl 140 mM): 82.2%
- Solubility of regular Insulin ([…] phenol + […] m-cresol, pH 6.6, NaCl 50 mM): 31.2%
- Solubility of regular Insulin ([…] phenol + […] m-cresol, pH 6.6, NaCl 80 mM): 18.6%
- Solubility of regular Insulin ([…] phenol + […] m-cresol, pH 6.6, NaCl 140 mM): 12.9%
- Solubility of regular Insulin ([…] phenol + […] m-cresol, pH 6.8, NaCl 50 mM): 66.6%
- Solubility of regular Insulin ([…] phenol + […] m-cresol, pH 6.8, NaCl 80 mM): 24.9%
- Solubility of regular Insulin ([…] phenol + […] m-cresol, pH 7.0, NaCl 50 mM): 96.7%
- Solubility of regular Insulin ([…] phenol + […] m-cresol, pH 7.0, NaCl 80 mM): 80.8%
- Solubility of regular Insulin ([…] phenol + […] m-cresol, pH 7.0, NaCl 110 mM): 32.9%
- Solubility of regular Insulin ([…] phenol + […] m-cresol, pH 7.0, NaCl 140 mM): 17.1%
- Solubility of regular Insulin ([…] phenol + […] m-cresol, pH 7.2, NaCl 80 mM): 96.4%
- Solubility of regular Insulin ([…] phenol + […] m-cresol, pH 7.2, NaCl 110 mM): 58.7%
- Solubility of regular Insulin ([…] phenol + […] m-cresol, pH 7.2, NaCl 140 mM): 33.1%
- Solubility of regular Insulin ([…] phenol + […] m-cresol, pH 7.4, NaCl 50 mM): 96.7%
- Solubility of regular Insulin ([…] phenol + […] m-cresol, pH 7.4, NaCl 80 mM): 97.3%
- Solubility of regular Insulin ([…] phenol + […] m-cresol, pH 7.4, NaCl 110 mM): 94.2%
- Solubility of regular Insulin ([…] phenol + […] m-cresol, pH 7.4, NaCl 140 mM): 57.9%
- Solubility of regular Insulin ([…] phenol + […] m-cresol, pH 7.6, NaCl 50 mM): 97.2%
- Solubility of regular Insulin ([…] phenol + […] m-cresol, pH 7.6, NaCl 80 mM): 97.1%
- Solubility of regular Insulin ([…] phenol + […] m-cresol, pH 7.6, NaCl 110 mM): 97.1%
- Solubility of regular Insulin ([…] phenol + […] m-cresol, pH 7.6, NaCl 140 mM): 91.7%
